Measured values as given in patent US20040048327.

Columns and labels:
[1] = target: T1, Cbz-Leu-Phe-AGln-trans-EP-COOEt
T1 chain: LFQ

[2] = target: T2, Cbz-Phe-ALeu-trans-EP-COOEt
T2 chain: FL

[3] = target: T3, Cbz-Leu-Leu-ALeu-(2R, 3R)-EP-COOEt
T3 chain: LLL

[4] = target: T4, Cbz-APhe-trans-EP-CH2CH2Ph
T4 chain: F

[5] = target: T5, Cbz-Leu-Leu-ALeu-(2S, 3S)-EP-COOH
T5 chain: LLL

[6] = target: T6, Cbz-Leu-ALeu-(2R, 3R)-EP-COOEt
T6 chain: LL

[7] = target: T7, Cbz-Ala-Ala-AAsn-(2S, 3S)-EP-COOEt
T7 chain: AAN

[8] = target: T8, PhPr-Val-Ala-AAsp-trans-EP-CH2CH2Ph
T8 chain: VAD

[9] = target: T9, Cbz-Leu-ALeu-cis-EP-COOEt
T9 chain: LL

[10] = target: T10, Cbz-Leu-AAbu-trans-EP-COOEt
T10 chain: LX

[11] = target: T11, Cbz-Leu-Glu-Thr-AAsp-(2R, 3R)-EP-COOEt
T11 chain: LETD

[12] = target: T12, Cbz-Ala-Ala-AAsn-trans-EP-COOEt
T12 chain: AAN

[13] = target: T13, Cbz-Asp-Glu-Val-AAsp-(2S, 3S)-EP-COOEt (not fully specified)
T13 chain: DEVD

[14] = target: T14, Ac-Leu-AHph-trans-EP-COOEt
T14 chain: LX

[15] = target: T15, Cbz-Leu-ALeu-trans-EP-COOEt
T15 chain: LL

Cbz-AHph-trans-EP-COOEt = target: T16, Cbz-AHph-trans-EP-COOEt
T16 chain: X

Cbz-APhe-trans-EP-COOEt = target: T17, Cbz-APhe-trans-EP-COOEt
T17 chain: F

[16] = target: T18, Cbz-Ala-Ala-AAsn-cis-EP-COOEt
T18 chain: AAN

[17] = target: T19, Boc-Nle-AHph-trans-EP-COOEt
T19 chain: XX

[18] = target: T20, Boc-Abu-AHph-trans-EP-CH2CH2Ph
T20 chain: XX

[19] = target: T21, Cbz-Leu-AAbu-trans-EP-COOH
T21 chain: LX

[20] = target: T22, Cbz-Leu-AHph-cis-EP-COOEt
T22 chain: LX

[21] = target: T23, Cbz-Leu-Leu-ALeu-(2S, 3S)-EP-COOEt
T23 chain: LLL

Ac-AHph-trans-EP-COOEt = target: T24, Ac-AHph-trans-EP-COOEt
T24 chain: X

[22] = target: T25, Cbz-Asp-Glu-Val-AAsp-(2R, 3R)-EP-COOEt (not fully specified)
T25 chain: DEVD

[23] = target: T26, Cbz-Phe-ALeu-trans-EP-CH2CH2Ph
T26 chain: FL

[24] = target: T27, Suc-Np2-ALeu-trans-EP-COOEt
T27 chain: XL

[25] = target: T28, Cbz-Leu-Leu-ALeu-trans-EP-COOEt
T28 chain: LLL

[26] = target: T29, Cbz-Ala-Ala-AAsn-(2R, 3R)-EP-COOEt
T29 chain: AAN

[27] = target: T30, Cbz-Ala-Ala-NHN(CH2COOEt)-trans-EP-COOEt
T30 chain: AAD

[28] = target: T31, Cbz-Leu-Glu-Thr-AAsp-(2S, 3S)-EP-COOEt
T31 chain: LETD

[29] = target: T32, Boc-Nva-AHph-trans-EP-COOEt
T32 chain: XX

Cbz-ALeu-trans-EP-COOEt = target: T33, Cbz-ALeu-trans-EP-COOEt
T33 chain: L

[30] = target: T34, PhPr-Val-Ala-AAsp-trans-EP-COOCH2Ph
T34 chain: VAD

[31] = target: T35, Ac-Leu-ALeu-trans-EP-COOEt
T35 chain: LL

[32] = target: T36, Cbz-Phe-APhe-trans-EP-CH2CH2Ph
T36 chain: FF

[33] = target: T37, Cbz-Leu-AHph-(2R, 3R)-EP-COOEt
T37 chain: LX

[34] = target: T38, Cbz-Leu-ALeu-(2S, 3S)-EP-COOEt
T38 chain: LL

[35] = target: T39, Cbz-Leu-AHph-(2S, 3S)-EP-COOEt
T39 chain: LX

[36] = target: T40, Boc-Nle-AHph-trans-EP-CH2CH2Ph
T40 chain: XX

[37] = target: T41, Boc-Np2-ALeu-trans-EP-COOEt
T41 chain: XL

B1: papain (protein)
chain: IPEYVDWRQKGAVTPVKNQGSCGSCWAFSAVVTIEGIIKIRTGNLNEYSEQELLDCDRRSYGCNGGYPWSALQLVAQYGIHYRNTYPYEGVQRYCRSREKGPYAAKTDGVRQVQPYNEGALLYSIANQPVSVVLEAAGKDFQLYRGGIFVGPCGNKVDHAVAAVGYGPNYILIKNSWGTGWGENGYIRIKRGTGNSYGVCGLYTSSFYPVKN
With B1 the kobs/[I] [1] was 0.9 M⁻¹ s⁻¹, the kobs/[I] [2] was 0.91 M⁻¹ s⁻¹ and the kobs/[I] [3] was 20.6 M⁻¹ s⁻¹. For the same protein, the kobs/[I] [4] was 0.92 M⁻¹ s⁻¹, the kobs/[I] [5] was 6.93 M⁻¹ s⁻¹ and the kobs/[I] [6] was 6.7 M⁻¹ s⁻¹. For the same protein, the kobs/[I] [7] was 4 M⁻¹ s⁻¹, the “kobs/[I]” value [8] was “NI” and the kobs/[I] [9] was 0.38 M⁻¹ s⁻¹. The kobs/[I] [10] was 4.94 M⁻¹ s⁻¹, the kobs/[I] [11] was 0.24 M⁻¹ s⁻¹ and the kobs/[I] [12] was 0.9 M⁻¹ s⁻¹. For the same protein, the “kobs/[I]” value [13] was “NI”, the kobs/[I] [14] was 1.9 M⁻¹ s⁻¹ and the kobs/[I] [15] was 6.37 M⁻¹ s⁻¹. For the same protein, the kobs/[I] (Cbz-AHph-trans-EP-COOEt) was 18.8 M⁻¹ s⁻¹, the kobs/[I] (Cbz-APhe-trans-EP-COOEt) was 8.5 M⁻¹ s⁻¹ and the “kobs/[I]” value [16] was “NI”. The kobs/[I] [17] was 1.6 M⁻¹ s⁻¹, the kobs/[I] [18] was 0.2 M⁻¹ s⁻¹ and the kobs/[I] [19] was 1.47 M⁻¹ s⁻¹. The kobs/[I] [20] was 1.03 M⁻¹ s⁻¹, the kobs/[I] [21] was 10.5 M⁻¹ s⁻¹ and the kobs/[I] (Ac-AHph-trans-EP-COOEt) was 26.9 M⁻¹ s⁻¹. The “kobs/[I]” value [22] was “NI”, the kobs/[I] [23] was 0.7 M⁻¹ s⁻¹ and the kobs/[I] [24] was 1.39 M⁻¹ s⁻¹. The kobs/[I] [25] was 34.8 M⁻¹ s⁻¹, the kobs/[I] [26] was 3 M⁻¹ s⁻¹ and the kobs/[I] [27] was 8.17 M⁻¹ s⁻¹. It also gave a kobs/[I] [28] of 0.47 M⁻¹ s⁻¹, a kobs/[I] [29] of 1.4 M⁻¹ s⁻¹ and a kobs/[I] (Cbz-ALeu-trans-EP-COOEt) of 16.1 M⁻¹ s⁻¹. For the same protein, the kobs/[I] [30] was < 10 M⁻¹ s⁻¹, the kobs/[I] [31] was 2.09 M⁻¹ s⁻¹ and the kobs/[I] [32] was 0.5 M⁻¹ s⁻¹. It also gave a kobs/[I] [33] of 2.16 M⁻¹ s⁻¹, a kobs/[I] [34] of 10.5 M⁻¹ s⁻¹ and a kobs/[I] [35] of 5.68 M⁻¹ s⁻¹. For the same protein, the kobs/[I] [36] was 0.5 M⁻¹ s⁻¹ and the kobs/[I] [37] was 3.9 M⁻¹ s⁻¹.
